Target: the molecule itself
Assay: Western blot, homodimer formation

B1: K3 NGAL mutant protein (ligand)
chain: QDSTSDLIPAPPLSSVPLQQNFQDNQFQGKWYVVGLAGNAILREDEDPQKMYATIYELKEDKSYNVTSVLFRDDGCDYWIRTFVPGCQPGEFTLGNIQSYPGLTSYLVRVVSTNYNQFAMVFFKKVSQNQEYFKITLYGRTKELTSELQENFIRFSKSLGLPENNIVFPVPIDQCIDG
notes: Mutant of human NGAL; Expressed in bacteria like the wild type and labelled with Alexa 568 in the uptake assays; also called K3 Scn-Ngal; Mut1
binding result: binds
